Reference: US5041542A, “Substituted pyrimido[5,4-d]pyrimidine nucleosides” (Nucleic Acid Research Institute, priority 1988, dated 1991)

Substrate: Nc1ncnc2c1ncn2[C@@H]1O[C@H](CO)[C@@H](O)[C@H]1O
Assay: Adenosine kinase inhibition (filter binding assay)
Format: biochemical, human
Conditions: other: adenosine as substrate; 37.0 °C

B1: WI-L2 adenosine kinase (Homo sapiens) (protein)
chain: MAAAEEEPKPKKLKVEAPQALRENILFGMGNPLLDISAVVDKDFLDKYSLKPNDQILAEDKHKELFDELVKKFKVEYHAGGSTQNSIKVAQWMIQQPHKAATFFGCIGIDKFGEILKRKAAEAHVDAHYYEQNEQPTGTCAACITGDNRSLIANLAAANCYKKEKHLDLEKNWMLVEKARVCYIAGFFLTVSPESVLKVAHHASENNRIFTLNLSAPFISQFYKESLMKVMPYVDILFGNETEAATFAREQGFETKDIKEIAKKTQALPKMNSKRQRIVIFTQGRDDTIMATESEVTAFAVLDQDQKEIIDTNGAGDAFVGGFLSQLVSDKPLTECIRAGHYAASIIIRRTGCTFPEKPDFH
notes: added to the cell-free WI-L2 lysate to give 5 μM final assay concentration; endogenous in cells; host or cells: WI-L2 B lymphoblast cells (cell-free lysate)
- Km: 0.9 µM
